# Test results taken from patent US20090246219A1.
# Molecular target: recombinant truncated protein E pE22-160, designated pE(A) (H. influenzae (NTHi strain 772))
# Test: Western blot of pE(A) probed with IgD(λ)
substance,measurement,value
"human IgD(λ) myeloma protein (human IgD myeloma whole serum IgD(λ), The Binding Site, Birmingham, England) (antibody)",amount of pE(A) detected on Western blot,0.01 microg
